{
  "source": "patent US10781262B2",
  "about": "“Combination therapy of T cell activating bispecific antigen binding molecules and PD-1 axis binding antagonists” (Hoffmann-La Roche Inc., priority 2014, dated 2020); on binding of analyte in solution 16D5 TCB to huFolR1 captured on the immobilized binder: key: + means binding; − means no binding; +/− means weak binding; on binding of analyte in solution 21A5 TCB to huFolR1 captured on the immobilized binder: key: + means binding; − means no binding; +/− means weak binding; on binding of analyte in solution 36F2 IgG to huFolR1 captured on the immobilized binder: key: + means binding; − means no binding; +/− means weak binding; on binding of analyte in solution 9D11 TCB to huFolR1 captured on the immobilized binder: key: + means binding; − means no binding; +/− means weak binding",
  "key": {"[1]": {"test_system": "erythrocytes"}, "[2]": {"test_system": "cynomolgus Folate Receptor 1 (FolR1-Fc)", "conditions": "bivalent binding (avidity), ligand cyFolR1", "protocol": "(§1) Binding of FolR1 binders as IgG or in the T-cell bispecific format to different recombinant folate receptors (human FolR1, 2 and 3, murine FolR1 and cynomolgus FolR1; all as Fc fusions) was assessed by surface plasmon resonance (SPR). All SPR experiments were performed on a Biacore T200 at 25° C. with HBS-EP as running buffer (0.01 M HEPES pH 7.4, 0.15 M NaCl, 3 mM EDTA, 0.005% Surfactant P20, Biacore, Freiburg/Germany).\nThe avidity of the interaction between the anti-FolR1 IgGs or T cell bispecifics and the recombinant folate receptors was determined as described below (Table 9). Recombinant biotinylated monomeric Fc fusions of human, cynomolgus and murine Folate Receptor 1 (FolR1-Fc) were directly coupled on a SA chip using the standard coupling instruction (Biacore, Freiburg/Germany). The immobilization level was about 300-400 RU. The anti-FolR1 IgGs or T cell bispecifics were passed at a concentration range from 2.1 to 500 nM with a flow of 30 μL/minutes through the flow cells over 180 seconds. The dissociation was monitored for 600 seconds. […] The binding curves resulting from the bivalent binding of the IgGs or T cell bispecifics were approximated to a 1:1 Langmuir binding and fitted with that model (which is not correct, but gives an idea of the avidity). The apparent avidity constants for the interactions were derived from the rate constants of the fitting using the Bia Evaluation software (GE Healthcare)."}, "[3]": {"test_system": "cyno Folate Receptor 1 Fc fusion", "conditions": "monovalent binding (affinity), analyte cyFolR1", "protocol": "as §1\n(§2) For affinity measurement, direct coupling of around 6000-7000 resonance units (RU) of the anti-human Fab specific antibody (Fab capture kit, GE Healthcare) was performed on a CM5 chip at pH 5.0 using the standard amine coupling kit (GE Healthcare). Anti-FolR1 IgGs or T cell bispecifics were captured at 20 nM with a flow rate of 10 μl/min for 20 or 40 sec, the reference flow cell was left without capture. Dilution series (6.17 to 500 nM or 12.35 to 3000 nM) of human or cyno Folate Receptor 1 Fc fusion were passed on all flow cells at 30 μl/min for 120 or 240 sec to record the association phase. The dissociation phase was monitored for 240 s and triggered by switching from the sample solution to HBS-EP. The chip surface was regenerated after every cycle using a double injection of 60 sec 10 mM Glycine-HCl pH 2.1 or pH 1.5. Bulk refractive index differences were corrected for by subtracting the response obtained on the reference flow cell 1. The affinity constants for the interactions were derived from the rate constants by fitting to a 1:1 Langmuir binding using the Bia Evaluation software (GE Healthcare)."}, "[4]": {"biological_target": "human Folate Receptor 1 Fc fusion (Homo sapiens, UniProt P15328)", "conditions": "monovalent binding (affinity), analyte huFolR1", "protocol": "as §1, §2"}, "[5]": {"test_system": "cynomolgus FolR1", "conditions": "IgG injected for 60 seconds at 500 nM", "protocol": "as §1\n(§3) First the anti-FolR1 IgGs were analyzed by single injections (Table 1) to characterize their crossreactivity (to human, murine and cyno FolR1) and specificity (to human FolR1, human FolR2, human FolR3). Recombinant biotinylated monomeric Fc fusions of human, cynomolgus and murine Folate Receptor 1 (FolR1-Fc) or human Folate Receptor 2 and 3 (FolR2-Fc, FolR3-Fc) were directly coupled on a SA chip using the standard coupling instruction (Biacore, Freiburg/Germany). The immobilization level was about 300-400 RU. The IgGs were injected for 60 seconds at a concentration of 500 nM."}, "[6]": {"biological_target": "human FolR1 (Homo sapiens, UniProt P15328)", "conditions": "IgG injected for 60 seconds at 500 nM", "protocol": "as §1, §3"}, "[7]": {"biological_target": "murine FolR1 (Mus musculus, UniProt P35846)", "conditions": "IgG injected for 60 seconds at 500 nM", "protocol": "as §1, §3"}, "[8]": {"biological_target": "human FolR3 (Homo sapiens, UniProt P41439)", "conditions": "IgG injected for 60 seconds at 500 nM", "protocol": "as §1, §3"}, "[9]": {"biological_target": "human FolR2 (Homo sapiens, UniProt P14207)", "conditions": "IgG injected for 60 seconds at 500 nM", "protocol": "as §1, §3"}, "[10]": {"test_system": "huFolR1-Fc", "experiment": "SPR epitope binning", "assay_type": "binding, human", "conditions": "label = immobilized binder; 500 nM", "protocol": "500 nM huFolR1-Fc was then captured for 60 s, followed by 500 nM of the different binders for 30 s. The surface was regenerated with two injections of 10 mM glycine pH 2 for 30 s each."}, "[11]": {"biological_target": "T1, human Folate Receptor 1 (FolR1-Fc) (Homo sapiens, UniProt P15328)", "T1 construct": "the extracellular domain of the antigen linked to the hinge region of Fc-knob; made in house; host or cells: HEK293 EBNA", "experiment": "SPR avidity to Folate Receptor 1 (bivalent binding)", "conditions": "bivalent binding (avidity), ligand huFolR1", "from_the_text": "The immobilization level was about 300-400 RU. […] The dissociation was monitored for 600 seconds."}},
  "data": [
    {"molecule": "Mov19: reference molecule, the human FolR1 binder Mov19 (IgG) (antibody, V domains shown) VH: QVQLQQSGAELVKPGASVKISCKASGYSFTGYFMNWVKQSHGKSLEWIGRIHPYDGDTFYNQNFKDKATLTVDKSSNTAHMELLSLTSEDFAVYYCTRYDGSRAMDYWGQGTTVTVSS VL: DIELTQSPASLAVSLGQRAIISCKASQSVSFAGTSLMHWYHQKPGQQPKLLIYRASNLEAGVPTRFSGSGSKTDFTLNIHPVEEEDAATYYCQQSREYPYTFGGGTKLEIK", "values": [
      {"measurement": "binding to erythrocytes", "setting": "[1]", "value": "could not observe any specific binding"},
      {"measurement": "ka", "setting": "[2]", "value": "1.29e+06", "unit": "M⁻¹ s⁻¹"},
      {"measurement": "kd", "setting": "[2]", "value": 0.000139, "unit": "s⁻¹"},
      {"measurement": "ka", "setting": "[3]", "value": 297000, "unit": "M⁻¹ s⁻¹"},
      {"measurement": "kd", "setting": "[3]", "value": 0.000193, "unit": "s⁻¹"},
      {"measurement": "ka", "setting": "[4]", "value": 289000, "unit": "M⁻¹ s⁻¹"},
      {"measurement": "kd", "setting": "[4]", "value": 0.000159, "unit": "s⁻¹"},
      {"measurement": "Binding to cyFolR1", "setting": "[5]", "value": "+"},
      {"measurement": "Binding to huFolR1", "setting": "[6]", "value": "+"},
      {"measurement": "Binding to muFolR1", "setting": "[7]", "value": "−"},
      {"measurement": "Binding to huFolR3", "setting": "[8]", "value": "−"},
      {"measurement": "Binding to huFolR2", "setting": "[9]", "value": "−"},
      {"measurement": "binding of analyte in solution 9D11 TCB to huFolR1 captured on the immobilized binder", "setting": "[10]", "value": "+/−"},
      {"measurement": "binding of analyte in solution 16D5 TCB to huFolR1 captured on the immobilized binder", "setting": "[10]", "value": "+"},
      {"measurement": "binding of analyte in solution 21A5 TCB to huFolR1 captured on the immobilized binder", "setting": "[10]", "value": "+"},
      {"measurement": "binding of analyte in solution 36F2 IgG to huFolR1 captured on the immobilized binder", "setting": "[10]", "value": "−"},
      {"measurement": "binding of analyte in solution Farletuzumab to huFolR1 captured on the immobilized binder", "setting": "[10]", "value": "−"},
      {"measurement": "binding of analyte in solution Mov19 IgG to huFolR1 captured on the immobilized binder", "setting": "[10]", "value": "−"},
      {"measurement": "ka", "setting": "[11]", "value": 861000, "unit": "M⁻¹ s⁻¹"},
      {"measurement": "kd", "setting": "[11]", "value": 0.000121, "unit": "s⁻¹"}
    ]}
  ]
}
